B1: Receptor-type tyrosine-protein phosphatase T (Homo sapiens), O14522-1 (parent)
chain: MASLAALALSLLLRLQLPPLPGARAQSAAGGCSFDEHYSNCGYSVALGTNGFTWEQINTWEKPMLDQAVPTGSFMMVNSSGRASGQKAHLLLPTLKENDTHCIDFHYYFSSRDRSSPGALNVYVKVNGGPQGNPVWNVSGVVTEGWVKAELAISTFWPHFYQVIFESVSLKGHPGYIAVDEVRVLAHPCRKAPHFLRLQNVEVNVGQNATFQCIAGGKWSQHDKLWLQQWNGRDTALMVTRVVNHRRFSATVSVADTAQRSVSKYRCVIRSDGGSGVSNYAELIVKEPPTPIAPPELLAVGATYLWIKPNANSIIGDGPIILKEVEYRTTTGTWAETHIVDSPNYKLWHLDPDVEYEIRVLLTRPGEGGTGPPGPPLTTRTKCADPVHGPQNVEIVDIRARQLTLQWEPFGYAVTRCHSYNLTVQYQYVFNQQQYEAEEVIQTSSHYTLRGLRPFMTIRLRLLLSNPEGRMESEELVVQTEEDVPGAVPLESIQGGPFEEKIYIQWKPPNETNGVITLYEINYKAVGSLDPSADLSSQRGKVFKLRNETHHLFVGLYPGTTYSFTIKASTAKGFGPPVTTRIATKISAPSMPEYDTDTPLNETDTTITVMLKPAQSRGAPVSVYQLVVKEERLQKSRRAADIIECFSVPVSYRNASSLDSLHYFAAELKPANLPVTQPFTVGDNKTYNGYWNPPLSPLKSYSIYFQALSKANGETKINCVRLATKAPMGSAQVTPGTPLCLLTTGASTQNSNTVEPEKQVDNTVKMAGVIAGLLMFIIILLGVMLTIKRRRNAYSYSYYLSQRKLAKKQKETQSGAQREMGPVASADKPTTKLSASRNDEGFSSSSQDVNGFTDGSRGELSQPTLTIQTHPYRTCDPVEMSYPRDQFQPAIRVADLLQHITQMKRGQGYGFKEEYEALPEGQTASWDTAKEDENRNKNRYGNIISYDHSRVRLLVLDGDPHSDYINANYIDGYHRPRHYIATQGPMQETVKDFWRMIWQENSASIVMVTNLVEVGRVKCVRYWPDDTEVYGDIKVTLIETEPLAEYVIRTFTVQKKGYHEIRELRLFHFTSWPDHGVPCYATGLLGFVRQVKFLNPPEAGPIVVHCSAGAGRTGCFIAIDTMLDMAENEGVVDIFNCVRELRAQRVNLVQTEEQYVFVHDAILEACLCGNTAIPVCEFRSLYYNISRLDPQTNSSQIKDEFQTLNIVTPRVRPEDCSIGLLPRNHDKNRSMDVLPLDRCLPFLISVDGESSNYINAALMDSHKQPAAFVVTQHPLPNTVADFWRLVFDYNCSSVVMLNEMDTAQFCMQYWPEKTSGCYGPIQVEFVSADIDEDIIHRIFRICNMARPQDGYRIVQHLQYIGWPAYRDTPPSKRSLLKVVRRLEKWQEQYDGREGRTVVHCLNGGGRSGTFCAICSVCEMIQQQNIIDVFHIVKTLRNNKSNMVETLEQYKFVYEVALEYLSSF

Variants of: B1
Conditions: with stat3_human STAT3, P40763
Sequence of stat3_human STAT3, P40763 (P40763 whole entry): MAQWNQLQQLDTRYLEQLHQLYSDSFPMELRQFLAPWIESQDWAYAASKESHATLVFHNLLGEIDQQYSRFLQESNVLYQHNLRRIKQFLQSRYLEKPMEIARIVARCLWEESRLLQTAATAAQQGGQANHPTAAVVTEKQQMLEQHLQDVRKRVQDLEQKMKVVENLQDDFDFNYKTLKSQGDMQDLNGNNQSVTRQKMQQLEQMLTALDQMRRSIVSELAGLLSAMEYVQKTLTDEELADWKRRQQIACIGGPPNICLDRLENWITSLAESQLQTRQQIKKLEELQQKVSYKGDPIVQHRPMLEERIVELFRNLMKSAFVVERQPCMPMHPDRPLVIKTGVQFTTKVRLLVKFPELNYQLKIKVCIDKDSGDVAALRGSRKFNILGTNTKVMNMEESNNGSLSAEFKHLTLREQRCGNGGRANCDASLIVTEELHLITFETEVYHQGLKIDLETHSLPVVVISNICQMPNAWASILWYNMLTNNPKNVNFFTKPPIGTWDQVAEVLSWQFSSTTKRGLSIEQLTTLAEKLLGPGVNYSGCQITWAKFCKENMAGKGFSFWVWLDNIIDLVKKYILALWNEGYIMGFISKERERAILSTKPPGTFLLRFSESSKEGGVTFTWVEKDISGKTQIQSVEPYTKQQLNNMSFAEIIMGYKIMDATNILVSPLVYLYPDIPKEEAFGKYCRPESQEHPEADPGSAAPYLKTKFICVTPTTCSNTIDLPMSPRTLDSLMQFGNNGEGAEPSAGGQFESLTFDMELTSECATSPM

effect of a mutation on the interaction | Variant
increasing interaction strength | D1074A
increasing interaction strength | D1074A;C1106S

Reference: IntAct's records for PubMed 17360477
